B1: Lysozyme C, P61626 (parent)
chain: MKALIVLGLVLLSVTVQGKVFERCELARTLKRLGMDGYRGISLANWMCLAKWESGYNTRATNYNAGDRSTDYGIFQINSRYWCNDGKTPGAVNACHLSCSALLQDNIADAVACAKRVVRDPQGIRAWVAWRNRCQNRDVRQYVQGCGV

Variants of: B1
Details: Homo sapiens, reversible: yes, structure 1LZ1, whole UniProt chain shown
[1] = pH 2.7, 64.9 °C, Thermal, DSC, glycine-HCl 0.05 M
[2] = pH 2.7, Thermal, DSC, glycine-HCl 0.05 M
[3] = pH 4, 10 °C, GdnHCl, CD, glycine-HCl 40 mM

| Variant | ddG of mutation (higher = less stable) [1] [kcal/mol] | heat capacity change of unfolding [1] [kcal/mol/K] | unfolding enthalpy (calorimetric) [1] [kcal/mol] | Tm [2] [°C] | heat capacity change of unfolding [2] [kcal/mol/K] | unfolding enthalpy (calorimetric) [2] [kcal/mol] | ddG of mutation (higher = less stable) [3] [kcal/mol] | denaturant midpoint (higher = more stable) [3] [M] | unfolding free energy [3] [kcal/mol] | change of melting temperature, mutant - wild type (higher = more stable) [2] [°C] |
| --- | --- | --- | --- | --- | --- | --- | --- | --- | --- | --- |
| MKALIVLGLVLLSVTVQGKVFERCELARTLKRLGMDGYRGISLANWMCLAKWESQYNTRATNYNAGDRSTDYGIFQINSRYWCNDGKTPGAVNACHLSCSALLQDNIADAVACAKRVVRDPQGIRAWVAWRNRCQNRDVRQYVQGCGV [G55Q] | 0.26 | 1.15 | 108 | 64.9 | 1.15 | 108 | 0.86 | 3.79 | 13.5 | – |
| MKALIVLGLVLLSVTVQGKVFERCELARTLKRLGMDGYRGISLANWMCLAKWESGYNTRATNYNAGDGSTDYGIFQINSRYWCNDGKTPGAVNACHLSCSALLQDNIADAVACAKRVVRDPQGIRAWVAWRNRCQNRDVRQYVQGCGV [R68G] | -0.26 | 1.46 | 100 | 65.8 | – | – | – | – | – | 0.9 |
| MKALIVLGLVLLSVTVQGKVFERCELARTLKRLGMDGYRGISLANWMCLAKWESGYNTRATNYNAGDRSTDYGIFQINSRYWCNDGKTPGAVNACGLSCSALLQDNIADAVACAKRVVRDPQGIRAWVAWRNRCQNRDVRQYVQGCGV [H96G] | 0.12 | 1.58 | 109 | 64.9 | 1.58 | 109 | 0.53 | 3.81 | 13.8 | – |
| MKALIVLGLVLLSVTVQGKVFERCELARTLKRLGMDGYRGISLANWMCLAKWESGYNTRATNYNAGDRSTDYGIFGINSRYWCNDGKTPGAVNACHLSCSALLQDNIADAVACAKRVVRDPQGIRAWVAWRNRCQNRDVRQYVQGCGV [Q76G] | – | – | – | – | 1.34 | 109 | -2.06 | 4.26 | 16.4 | 5.7 |

Source: FireProtDB (doi:10.1021/bi9928694)
